Key:
Assay in all cases: SPR, Fab on captured PD-1-Fc;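 also: Alanine-scan PD-1 Fc fusions expressed transiently in ExpiCHO, captured on anti-human IgG Fc surface in IBIS MX96, anti-PD-1 Fab association 15 min, dissociation 30 min, Langmuir 1:1 fit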
human PD-1 ECD-Fc E136A = target: T1, human PD-1 ECD-Fc E136A (human, UniProt Q15116 21-170)
T1 construct: not shown: human IgG1 Fc, residues P101-K330

human PD-1 ECD-Fc P72A = target: T2, human PD-1 ECD-Fc P72A (human, UniProt Q15116 21-170)
T2 construct: not shown: human IgG1 Fc, residues P101-K330

human PD-1 ECD-Fc C93A = target: T3, human PD-1 ECD-Fc C93A (human, UniProt Q15116 21-170)
T3 construct: not shown: human IgG1 Fc, residues P101-K330

human PD-1 ECD-Fc V44A = target: T4, human PD-1 ECD-Fc V44A (human, UniProt Q15116 21-170)
T4 construct: not shown: human IgG1 Fc, residues P101-K330

human PD-1 ECD-Fc P162A = target: T5, human PD-1 ECD-Fc P162A (human, UniProt Q15116 21-170)
T5 construct: not shown: human IgG1 Fc, residues P101-K330

human PD-1 ECD-Fc A80G = target: T6, human PD-1 ECD-Fc A80G (human, UniProt Q15116 21-170)
T6 construct: not shown: human IgG1 Fc, residues P101-K330

human PD-1 ECD-Fc E146A = target: T7, human PD-1 ECD-Fc E146A (human, UniProt Q15116 21-170)
T7 construct: not shown: human IgG1 Fc, residues P101-K330

human PD-1 ECD-Fc Q165A = target: T8, human PD-1 ECD-Fc Q165A (human, UniProt Q15116 21-170)
T8 construct: not shown: human IgG1 Fc, residues P101-K330

human PD-1 ECD-Fc D26A = target: T9, human PD-1 ECD-Fc D26A (human, UniProt Q15116 21-170)
T9 construct: not shown: human IgG1 Fc, residues P101-K330

human PD-1 ECD-Fc D77A = target: T10, human PD-1 ECD-Fc D77A (human, UniProt Q15116 21-170)
T10 construct: not shown: human IgG1 Fc, residues P101-K330

human PD-1 ECD-Fc A50G = target: T11, human PD-1 ECD-Fc A50G (human, UniProt Q15116 21-170)
T11 construct: not shown: human IgG1 Fc, residues P101-K330

human PD-1 ECD-Fc P156A = target: T12, human PD-1 ECD-Fc P156A (human, UniProt Q15116 21-170)
T12 construct: not shown: human IgG1 Fc, residues P101-K330

human PD-1 ECD-Fc Q167A = target: T13, human PD-1 ECD-Fc Q167A (human, UniProt Q15116 21-170)
T13 construct: label printed under 'Rat mutation', values in r90; not shown: human IgG1 Fc, residues P101-K330

human PD-1 ECD-Fc N49A = target: T14, human PD-1 ECD-Fc N49A (human, UniProt Q15116 21-170)
T14 construct: not shown: human IgG1 Fc, residues P101-K330

human PD-1 ECD-Fc A132G = target: T15, human PD-1 ECD-Fc A132G (human, UniProt Q15116 21-170)
T15 construct: not shown: human IgG1 Fc, residues P101-K330

human PD-1 ECD-Fc N116A = target: T16, human PD-1 ECD-Fc N116A (human, UniProt Q15116 21-170)
T16 construct: not shown: human IgG1 Fc, residues P101-K330

human PD-1 ECD-Fc K135A = target: T17, human PD-1 ECD-Fc K135A (human, UniProt Q15116 21-170)
T17 construct: not shown: human IgG1 Fc, residues P101-K330

human PD-1 ECD-Fc S87A = target: T18, human PD-1 ECD-Fc S87A (human, UniProt Q15116 21-170)
T18 construct: not shown: human IgG1 Fc, residues P101-K330

human PD-1 ECD-Fc S27A = target: T19, human PD-1 ECD-Fc S27A (human, UniProt Q15116 21-170)
T19 construct: not shown: human IgG1 Fc, residues P101-K330

human PD-1 ECD-Fc N33A = target: T20, human PD-1 ECD-Fc N33A (human, UniProt Q15116 21-170)
T20 construct: not shown: human IgG1 Fc, residues P101-K330

human PD-1 ECD-Fc T36A = target: T21, human PD-1 ECD-Fc T36A (human, UniProt Q15116 21-170)
T21 construct: not shown: human IgG1 Fc, residues P101-K330

human PD-1 ECD-Fc D29A = target: T22, human PD-1 ECD-Fc D29A (human, UniProt Q15116 21-170)
T22 construct: not shown: human IgG1 Fc, residues P101-K330

human PD-1 ECD-Fc T145A = target: T23, human PD-1 ECD-Fc T145A (human, UniProt Q15116 21-170)
T23 construct: not shown: human IgG1 Fc, residues P101-K330

human PD-1 ECD-Fc G124A = target: T24, human PD-1 ECD-Fc G124A (human, UniProt Q15116 21-170)
T24 construct: not shown: human IgG1 Fc, residues P101-K330

human PD-1 ECD-Fc K78A = target: T25, human PD-1 ECD-Fc K78A (human, UniProt Q15116 21-170)
T25 construct: not shown: human IgG1 Fc, residues P101-K330

human PD-1 ECD-Fc L128A = target: T26, human PD-1 ECD-Fc L128A (human, UniProt Q15116 21-170)
T26 construct: not shown: human IgG1 Fc, residues P101-K330

human PD-1 ECD-Fc S57A = target: T27, human PD-1 ECD-Fc S57A (human, UniProt Q15116 21-170)
T27 construct: not shown: human IgG1 Fc, residues P101-K330

human PD-1 ECD-Fc T98A = target: T28, human PD-1 ECD-Fc T98A (human, UniProt Q15116 21-170)
T28 construct: not shown: human IgG1 Fc, residues P101-K330

human PD-1 ECD-Fc G90A = target: T29, human PD-1 ECD-Fc G90A (human, UniProt Q15116 21-170)
T29 construct: not shown: human IgG1 Fc, residues P101-K330

human PD-1 ECD-Fc K131A = target: T30, human PD-1 ECD-Fc K131A (human, UniProt Q15116 21-170)
T30 construct: not shown: human IgG1 Fc, residues P101-K330

human PD-1 ECD-Fc G103A = target: T31, human PD-1 ECD-Fc G103A (human, UniProt Q15116 21-170)
T31 construct: not shown: human IgG1 Fc, residues P101-K330

human PD-1 ECD-Fc A40T = target: T32, human PD-1 ECD-Fc A40T (human, UniProt Q15116 21-170)
T32 construct: also called Rat mutation A40T; not shown: human IgG1 Fc, residues P101-K330

T4 sequence (Q15116 21-170 V44A): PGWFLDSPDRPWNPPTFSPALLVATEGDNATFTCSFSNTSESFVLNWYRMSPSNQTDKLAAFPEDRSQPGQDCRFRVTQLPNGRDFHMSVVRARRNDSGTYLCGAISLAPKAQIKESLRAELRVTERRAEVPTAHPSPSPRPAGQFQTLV
T13 sequence (Q15116 21-170 Q167A): as the sequence (Q15116 21-170 V44A) above, with A24V, Q147A counted along it
T14 sequence (Q15116 21-170 N49A): as the sequence (Q15116 21-170 V44A) above, with A24V, N29A counted along it
T27 sequence (Q15116 21-170 S57A): as the sequence (Q15116 21-170 V44A) above, with A24V, S37A counted along it
T12 sequence (Q15116 21-170 P156A): as the sequence (Q15116 21-170 V44A) above, with A24V, P136A counted along it
T24 sequence (Q15116 21-170 G124A): as the sequence (Q15116 21-170 V44A) above, with A24V, G104A counted along it
T9 sequence (Q15116 21-170 D26A): as the sequence (Q15116 21-170 V44A) above, with D6A, A24V counted along it
T19 sequence (Q15116 21-170 S27A): as the sequence (Q15116 21-170 V44A) above, with S7A, A24V counted along it
T1 sequence (Q15116 21-170 E136A): as the sequence (Q15116 21-170 V44A) above, with A24V, E116A counted along it
T16 sequence (Q15116 21-170 N116A): as the sequence (Q15116 21-170 V44A) above, with A24V, N96A counted along it
T6 sequence (Q15116 21-170 A80G): as the sequence (Q15116 21-170 V44A) above, with A24V, A60G counted along it
T3 sequence (Q15116 21-170 C93A): as the sequence (Q15116 21-170 V44A) above, with A24V, C73A counted along it
T30 sequence (Q15116 21-170 K131A): as the sequence (Q15116 21-170 V44A) above, with A24V, K111A counted along it
T22 sequence (Q15116 21-170 D29A): as the sequence (Q15116 21-170 V44A) above, with D9A, A24V counted along it
T10 sequence (Q15116 21-170 D77A): as the sequence (Q15116 21-170 V44A) above, with A24V, D57A counted along it
T21 sequence (Q15116 21-170 T36A): as the sequence (Q15116 21-170 V44A) above, with T16A, A24V counted along it
T17 sequence (Q15116 21-170 K135A): as the sequence (Q15116 21-170 V44A) above, with A24V, K115A counted along it
T2 sequence (Q15116 21-170 P72A): as the sequence (Q15116 21-170 V44A) above, with A24V, P52A counted along it
T7 sequence (Q15116 21-170 E146A): as the sequence (Q15116 21-170 V44A) above, with A24V, E126A counted along it
T25 sequence (Q15116 21-170 K78A): as the sequence (Q15116 21-170 V44A) above, with A24V, K58A counted along it
T18 sequence (Q15116 21-170 S87A): as the sequence (Q15116 21-170 V44A) above, with A24V, S67A counted along it
T15 sequence (Q15116 21-170 A132G): as the sequence (Q15116 21-170 V44A) above, with A24V, A112G counted along it

binding result (human PD-1 ECD-Fc E136A): no binding (tested: 1 nM to 50 nM)
KD mutant/KD wild-type (human PD-1 ECD-Fc P72A): 1.8 ratio
KD mutant/KD wild-type (human PD-1 ECD-Fc C93A): 0.9 ratio
KD mutant/KD wild-type (human PD-1 ECD-Fc V44A): 0.8 ratio
KD mutant/KD wild-type (human PD-1 ECD-Fc P162A): 1.1 ratio
KD mutant/KD wild-type (human PD-1 ECD-Fc A80G): 0.4 ratio
KD mutant/KD wild-type (human PD-1 ECD-Fc E146A): 1 ratio
KD mutant/KD wild-type (human PD-1 ECD-Fc Q165A): 1.1 ratio
KD mutant/KD wild-type (human PD-1 ECD-Fc D26A): 0.8 ratio
KD mutant/KD wild-type (human PD-1 ECD-Fc D77A): 0.3 ratio
KD mutant/KD wild-type (human PD-1 ECD-Fc A50G): 0.6 ratio
KD mutant/KD wild-type (human PD-1 ECD-Fc P156A): 1.1 ratio
KD mutant/KD wild-type (human PD-1 ECD-Fc Q167A): 1 ratio
KD mutant/KD wild-type (human PD-1 ECD-Fc N49A): 0.7 ratio
KD mutant/KD wild-type (human PD-1 ECD-Fc A132G): 1.4 ratio
KD mutant/KD wild-type (human PD-1 ECD-Fc N116A): 0.8 ratio
KD mutant/KD wild-type (human PD-1 ECD-Fc K135A): 1.1 ratio
KD mutant/KD wild-type (human PD-1 ECD-Fc S87A): 0.9 ratio
KD mutant/KD wild-type (human PD-1 ECD-Fc S27A): 0.8 ratio
KD mutant/KD wild-type (human PD-1 ECD-Fc N33A): 1.1 ratio
KD mutant/KD wild-type (human PD-1 ECD-Fc T36A): 1 ratio
KD mutant/KD wild-type (human PD-1 ECD-Fc D29A): 0.9 ratio
KD mutant/KD wild-type (human PD-1 ECD-Fc T145A): 0.7 ratio
KD mutant/KD wild-type (human PD-1 ECD-Fc G124A): 4 ratio
KD mutant/KD wild-type (human PD-1 ECD-Fc K78A): 0.7 ratio
KD mutant/KD wild-type (human PD-1 ECD-Fc L128A): 2.1 ratio
KD mutant/KD wild-type (human PD-1 ECD-Fc S57A): 1 ratio
KD mutant/KD wild-type (human PD-1 ECD-Fc T98A): 0.9 ratio
KD mutant/KD wild-type (human PD-1 ECD-Fc G90A): 0.8 ratio
binding result (human PD-1 ECD-Fc K131A): no binding (tested: 1 nM to 50 nM)
KD mutant/KD wild-type (human PD-1 ECD-Fc G103A): 0.8 ratio
KD mutant/KD wild-type (human PD-1 ECD-Fc A40T): 1 ratio
B1: 12865.17150 Fab (Fab, V domains shown)
VH: EVQLLESGGGLVQPGGSLRLSCAASGFDFSDHGMQWVRQAPGKGLEYVGVIDTTGRYTYYAPAVKGRATISRDNSKNTLYLQMNSLRAEDTAVYYCAKTTCVGGYLCNTVGSIDAWGQGTLVTVSS
VL: SYELTQDPAVSVALGQTVRITCSGGGSSSYYGWYQQKPGQAPVTVIYDDTNRPSGIPDRFSGSSSGNTASLTITGAQAEDEADYYCGGYEGSSHAGIFGSGTKVTVL
notes: monomeric Fab fragment

Source: patent US20210284734A1 (SYMPHOGEN A S, published 2021)
